Source: US20180344813A1, “ENGINEERED POLYPEPTIDES HAVING ENHANCED DURATION OF ACTION WITH REDUCED IMMUNOGENICITY” (priority 2016, published 2018)
Read-outs that look alike come from different tables or passages of the source.

Experiments:
[1] = test system: renal cortical tubular epithelial cells; assay: Kidney vacuolization histopathology in C57BL6 female mice; format: in vivo, mouse
Description: With some drugs, such as some pegylated proteins, undesirable vacuoles can form in cytoplasm of epithelial cells lining the proximal convoluted tubules, which is an undesirable toxicity measure. […] C57BL6 female mice (n=2 cages, 3 mice/cage) were weighed daily 3 hours prior to lights out. Immediately after weighing, on days 0-6 mice were injected subcutaneously with test compound. Mice were sacrificed on day 7 and kidneys submitted for histopathology. […] A positive control compound known to cause vacuole formation was scored as 3.

[2] = test system: IgG molecules present in normal human sera; assay: Serum response analysis: ELISA of human serum IgG binding to albumin binding polypeptides
Description: Each serum sample was tested as a singlet.

NIH/Swiss mice = assay: OGTT DOA (oral glucose tolerance test duration of action); format: in vivo, mouse; details: 25 nmol/Kg, OGTT at 24 hours post drug administration, 30 minutes post gavage; 4-hr fasted NIH/Swiss mice
Description: For example, duration can be performed using an oral glucose tolerance test (OGTT) in which the drug is administered to the subject at a desired time point before the glucose is administered orally(to measure drug duration of action; OGTT DOA) and glucose blood levels are measured (e.g. readily done in mice).
Drug was administered to 4-hr fasted NIH/Swiss mice. […] Blood glucose was measured with a OneTouch® Ultra® (LifeScan, Inc., a Johnson & Johnson Company, Milpitas, Calif.). *p<0.05 vs. vehicle control; ANOVA, Dunnett's test. Glucose lowering as percent lowering compared to vehicle is given (negative value indicates lowering of glucose) at 30 minutes post gavage.

Compound	reactivity with serum IgG (average OD-value and percentage of serum with IgG binding) [2]	number of responding individuals (CD3+ CD4+ T cells)	further results
CC[C@H](C)[C@H](NC(=O)[C@H](C)NC(=O)[C@H](CC(=O)O)NC(=O)[C@H](CCCCN)NC(=O)[C@H](CC(C)C)NC(=O)[C@H](C)NC(=O)[C@H](CCC(=O)O)NC(=O)[C@@H](NC(=O)CNC(=O)[C@H](CCC(=O)O)NC(=O)[C@@H](NC(=O)[C@@H](NC(=O)[C@H](CCCCN)NC(=O)[C@H](C)NC(=O)[C@H](CCCCN)NC(=O)[C@H](CC(=O)O)NC(=O)[C@@H](NC(=O)[C@H](CC(C)C)NC(=O)[C@H](CCCNC(=N)N)NC(=O)[C@H](CCCCN)NC(=O)[C@H](Cc1ccc(O)cc1)NC(=O)[C@H](Cc1ccccc1)NC(=O)[C@H](CC(=O)O)NC(=O)[C@H](CO)NC(=O)[C@@H](NC(=O)CNC(=O)[C@H](Cc1ccc(O)cc1)NC(=O)[C@H](CO)NC(=O)[C@H](CC(=O)O)NC(=O)[C@H](CC(C)C)NC(=O)[C@H](CCC(=O)O)NC(=O)[C@H](C)NC(=O)[C@H](CC(N)=O)NC(=O)[C@H](C)NC(=O)[C@H](C)NC(=O)[C@H](CCC(=O)O)NC(=O)[C@H](CCCCN)NC(=O)[C@H](C)NC(=O)[C@H](CCC(=O)O)NC(=O)[C@H](C)NC(=O)[C@H](CC(C)C)NC(=O)[C@H](CO)NC(=O)CN)C(C)C)[C@@H](C)CC)[C@@H](C)O)C(C)C)C(C)C)C(=O)N[C@@H](CC(C)C)C(=O)N[C@@H](C)C(=O)N[C@@H](C)C(=O)N[C@@H](CC(C)C)C(=O)N1CCC[C@H]1C(=O)O [PEP07986]	–	–	severity score for cytoplasmic vacuolation of renal cortical tubular epithelial cells ([1]; mouse, in vivo, sc): 0
CC[C@H](C)[C@H](NC(=O)[C@H](C)NC(=O)[C@H](CC(=O)O)NC(=O)[C@H](CCCCN)NC(=O)[C@H](CC(C)C)NC(=O)[C@H](C)NC(=O)[C@H](CCC(=O)O)NC(=O)[C@@H](NC(=O)CNC(=O)[C@H](CCC(=O)O)NC(=O)[C@@H](NC(=O)[C@@H](NC(=O)[C@H](CCCCN)NC(=O)[C@H](C)NC(=O)[C@H](CCCCN)NC(=O)[C@H](CC(=O)O)NC(=O)[C@@H](NC(=O)[C@H](CC(C)C)NC(=O)[C@H](CCCNC(=N)N)NC(=O)[C@H](CCCCN)NC(=O)[C@H](Cc1ccc(O)cc1)NC(=O)[C@H](Cc1ccccc1)NC(=O)[C@H](CC(=O)O)NC(=O)[C@H](CO)NC(=O)[C@@H](NC(=O)CNC(=O)[C@H](Cc1ccc(O)cc1)NC(=O)[C@H](CCCCN)NC(=O)[C@H](CC(=O)O)NC(=O)[C@H](CC(C)C)NC(=O)[C@H](CCC(=O)O)NC(=O)[C@H](C)NC(=O)[C@H](CC(N)=O)NC(=O)[C@H](C)NC(=O)[C@H](C)NC(=O)[C@H](CCC(=O)O)NC(=O)[C@H](CCCCN)NC(=O)[C@H](C)NC(=O)[C@H](CO)NC(=O)[C@H](C)NC(=O)[C@H](CC(C)C)NC(=O)[C@H](CO)NC(=O)[C@H](CO)NC(=O)CN)C(C)C)[C@@H](C)CC)[C@@H](C)O)C(C)C)C(C)C)C(=O)N[C@@H](CC(C)C)C(=O)N[C@@H](C)C(=O)N[C@@H](C)C(=O)N[C@@H](CC(C)C)C(=O)N1CCC[C@H]1C(=O)O [PEP07844]	highest	–	–
CC[C@H](C)[C@H](NC(=O)[C@H](CCC(=O)O)NC(=O)[C@H](CC(=O)O)NC(=O)[C@@H](NC(=O)[C@H](CC(C)C)NC(=O)[C@H](C)NC(=O)[C@H](CCCCN)NC(=O)[C@@H](NC(=O)CNC(=O)[C@H](CCC(=O)O)NC(=O)[C@@H](NC(=O)[C@@H](NC(=O)[C@H](CCCCN)NC(=O)[C@H](C)NC(=O)[C@H](CC(N)=O)NC(=O)[C@H](CC(N)=O)NC(=O)[C@@H](NC(=O)[C@H](CC(C)C)NC(=O)[C@H](CC(N)=O)NC(=O)[C@H](CCCCN)NC(=O)[C@H](Cc1ccc(O)cc1)NC(=O)[C@H](Cc1ccc(O)cc1)NC(=O)[C@H](CC(=O)O)NC(=O)[C@H](CO)NC(=O)[C@@H](NC(=O)CNC(=O)[C@H](Cc1ccc(O)cc1)NC(=O)[C@H](CCCCN)NC(=O)[C@H](CC(=O)O)NC(=O)[C@H](CC(C)C)NC(=O)[C@H](CCC(=O)O)NC(=O)[C@H](CCCNC(=N)N)NC(=O)[C@H](CC(N)=O)NC(=O)[C@H](C)NC(=O)[C@H](CC(C)C)NC(=O)[C@@H](NC(=O)[C@H](CCCCN)NC(=O)[C@H](C)NC(=O)[C@H](CCC(=O)O)NC(=O)[C@H](C)NC(=O)[C@H](CC(C)C)NC(=O)CN)C(C)C)C(C)C)[C@@H](C)CC)[C@@H](C)O)C(C)C)C(C)C)[C@@H](C)CC)C(=O)N[C@@H](CC(C)C)C(=O)N[C@@H](C)C(=O)N[C@@H](C)C(=O)N[C@@H](CC(C)C)C(=O)N1CCC[C@H]1C(=O)O [PEP07913, reference compound]	highest	–	–
HGEGTFTSDLSKQLEEEAVRLFIEWLKQGGPSKEIISTGGGGSASGSLAEAKEAANAELDSYGVSDFYKRLIDKAKTVEGVEALKDAILAALP [Cmpd 5]	–	–	severity score for cytoplasmic vacuolation of renal cortical tubular epithelial cells ([1]; subcutaneous on days 0-6, sacrificed on day 7, C57BL6 female mice): 0
Keyhole Limpet Hemocyanin [KLH, reference compound]	–	51	–
CC[C@H](C)[C@H](NC(=O)[C@H](Cc1c[nH]cn1)NC(=O)[C@H](CC(C)C)NC(=O)[C@H](CCCCN)NC(=O)[C@H](CC(C)C)NC(=O)[C@H](C)NC(=O)[C@H](CCC(=O)O)NC(=O)[C@@H](NC(=O)CNC(=O)[C@H](CCC(=O)O)NC(=O)[C@@H](NC(=O)[C@@H](NC(=O)[C@H](CCCCN)NC(=O)[C@H](C)NC(=O)[C@H](CCCCN)NC(=O)[C@H](CC(N)=O)NC(=O)[C@@H](NC(=O)[C@H](CC(C)C)NC(=O)[C@H](CCCNC(=N)N)NC(=O)[C@H](CCCCN)NC(=O)[C@H](Cc1ccc(O)cc1)NC(=O)[C@H](Cc1ccccc1)NC(=O)[C@H](CC(=O)O)NC(=O)[C@H](CO)NC(=O)[C@@H](NC(=O)CNC(=O)[C@H](Cc1ccc(O)cc1)NC(=O)[C@H](CCCCN)NC(=O)[C@H](CC(=O)O)NC(=O)[C@H](CC(C)C)NC(=O)[C@H](CCC(=O)O)NC(=O)[C@H](CCCNC(=N)N)NC(=O)[C@H](CC(N)=O)NC(=O)[C@H](C)NC(=O)[C@H](CC(C)C)NC(=O)[C@@H](NC(=O)[C@H](CCCCN)NC(=O)[C@H](C)NC(=O)[C@H](CCC(=O)O)NC(=O)[C@H](C)NC(=O)[C@H](CC(C)C)NC(=O)[C@H](CO)NC(=O)[C@H](CO)NC(=O)CN)C(C)C)C(C)C)[C@@H](C)CC)[C@@H](C)O)C(C)C)C(C)C)C(=O)N[C@@H](CC(C)C)C(=O)N[C@@H](C)C(=O)N[C@@H](C)C(=O)N[C@@H](CC(C)C)C(=O)N1CCC[C@H]1C(=O)O [PEP06923, reference compound]	–	–	reactivity with serum IgG (average OD-value and percentage of serum with IgG binding) ([2]; 126 positive human sera, diluted 50 times): highest
CC[C@H](C)[C@H](NC(=O)[C@H](C)NC(=O)[C@H](CC(=O)O)NC(=O)[C@H](CCCCN)NC(=O)[C@H](CC(C)C)NC(=O)[C@H](C)NC(=O)[C@H](CCC(=O)O)NC(=O)[C@@H](NC(=O)CNC(=O)[C@H](CCC(=O)O)NC(=O)[C@@H](NC(=O)[C@@H](NC(=O)[C@H](CCCCN)NC(=O)[C@H](C)NC(=O)[C@H](CCCCN)NC(=O)[C@H](CC(=O)O)NC(=O)[C@@H](NC(=O)[C@H](CC(C)C)NC(=O)[C@H](CCCNC(=N)N)NC(=O)[C@H](CCCCN)NC(=O)[C@H](Cc1ccc(O)cc1)NC(=O)[C@H](Cc1ccccc1)NC(=O)[C@H](CC(=O)O)NC(=O)[C@H](CO)NC(=O)[C@@H](NC(=O)CNC(=O)[C@H](Cc1ccc(O)cc1)NC(=O)[C@H](CO)NC(=O)[C@H](CC(=O)O)NC(=O)[C@H](CC(C)C)NC(=O)[C@H](CCC(=O)O)NC(=O)[C@H](C)NC(=O)[C@H](CC(N)=O)NC(=O)[C@H](C)NC(=O)[C@H](C)NC(=O)[C@H](CCC(=O)O)NC(=O)[C@H](CCCCN)NC(=O)[C@H](C)NC(=O)[C@H](CCC(=O)O)NC(=O)[C@H](C)NC(=O)[C@H](CC(C)C)NC(=O)CN)C(C)C)[C@@H](C)CC)[C@@H](C)O)C(C)C)C(C)C)C(=O)N[C@@H](CC(C)C)C(=O)N[C@@H](C)C(=O)N[C@@H](C)C(=O)N[C@@H](CC(C)C)C(=O)N1CCC[C@H]1C(=O)O [PEP07914]	least reactivity	2	immunogenicity definition (CD3+ CD4+ T cells): non-immunogenic
CC[C@H](C)[C@H](NC(=O)[C@H](C)NC(=O)[C@H](CC(=O)O)NC(=O)[C@H](CCCCN)NC(=O)[C@H](CC(C)C)NC(=O)[C@H](C)NC(=O)[C@H](CCC(=O)O)NC(=O)[C@@H](NC(=O)CNC(=O)[C@H](CCC(=O)O)NC(=O)[C@@H](NC(=O)[C@@H](NC(=O)[C@H](CCCCN)NC(=O)[C@H](C)NC(=O)[C@H](CCCCN)NC(=O)[C@H](CC(=O)O)NC(=O)[C@@H](NC(=O)[C@H](CC(C)C)NC(=O)[C@H](CCCNC(=N)N)NC(=O)[C@H](CCCCN)NC(=O)[C@H](Cc1ccc(O)cc1)NC(=O)[C@H](Cc1ccccc1)NC(=O)[C@H](CC(=O)O)NC(=O)[C@H](CO)NC(=O)[C@@H](NC(=O)CNC(=O)[C@H](Cc1ccc(O)cc1)NC(=O)[C@H](CSC1CC(=O)N(CCNC(=O)CN2CCN(CC(=O)O)CCN(CC(=O)O)CCN(CC(=O)O)CC2)C1=O)NC(=O)[C@H](CC(=O)O)NC(=O)[C@H](CC(C)C)NC(=O)[C@H](CCC(=O)O)NC(=O)[C@H](C)NC(=O)[C@H](CC(N)=O)NC(=O)[C@H](C)NC(=O)[C@H](C)NC(=O)[C@H](CCC(=O)O)NC(=O)[C@H](CCCCN)NC(=O)[C@H](C)NC(=O)[C@H](CO)NC(=O)[C@H](C)NC(=O)[C@H](CC(C)C)NC(=O)CN)C(C)C)[C@@H](C)CC)[C@@H](C)O)C(C)C)C(C)C)C(=O)N[C@@H](CC(C)C)C(=O)N[C@@H](C)C(=O)N[C@@H](C)C(=O)N[C@@H](CC(C)C)C(=O)N1CCC[C@H]1C(=O)O (stereo partly shown) [PEP07968]	least reactivity	1	immunogenicity definition (CD3+ CD4+ T cells): non-immunogenic
HGEGTFTSDLSKQLEEEAVRLFIEWLKNGGPSSGAPPKSTGGGGSASGSLAEAKEAANAELDSYGVSDFYKRLIDKAKTVEGVEALKDAILAALP [Cmpd 6]	–	–	Percent glucose lowering compared to vehicle (NIH/Swiss mice): −22%
